# Experimental data reported in patent US20230158141A1 (YAFEI SHANGHAI BIOLOG MEDICINE SCIENCE AND TECHNOLOGY, published 2023).
# T1: IL-10R1-Fc (UniProt Q13651 22-235, limits assumed)
# T1 sequence (looked up): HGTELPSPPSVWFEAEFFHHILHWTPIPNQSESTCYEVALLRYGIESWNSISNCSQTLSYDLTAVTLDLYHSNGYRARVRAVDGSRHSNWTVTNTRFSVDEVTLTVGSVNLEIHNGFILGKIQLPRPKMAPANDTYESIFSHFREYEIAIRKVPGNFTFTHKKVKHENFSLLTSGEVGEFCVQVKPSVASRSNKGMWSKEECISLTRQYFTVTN
# Molecular target: T1, IL-10R1-Fc
# Experiment: ELISA, IL-10R1-Fc coated
Binder,Binding recovery (>60%),Decreased fold of binding to ligand after Conjugating with S48
"IL-10 Leu46Cys-R4-6 (ligand, human, UniProt P22301 19-178, looked up, R4-6 on Cys 46, mature) SPGQGTQSENSCTHFPGNLPNMLRDLRDAFSRVKTFFQMKDQLDNCLLKESLLEDFKGYLGCQALSEMIQFYLEEVMPQAENQDPDIKAHVNSLGENLKTLRLRLRRCHRFLPCENKSKAVEQVKNAFNKLQEKGIYKAMSEFDIFINYIEAYMTMKIRN",89.6%,–
"IL-10 Leu48Cys-R4-7 (ligand, human, UniProt P22301 19-178, looked up, R4-7 on Cys 48, mature) SPGQGTQSENSCTHFPGNLPNMLRDLRDAFSRVKTFFQMKDQLDNLLCKESLLEDFKGYLGCQALSEMIQFYLEEVMPQAENQDPDIKAHVNSLGENLKTLRLRLRRCHRFLPCENKSKAVEQVKNAFNKLQEKGIYKAMSEFDIFINYIEAYMTMKIRN",98.9%,–
"IL-10 Leu48Cys-S48 (ligand, human, UniProt P22301 19-178, looked up, S48 on Cys 48, mature) SPGQGTQSENSCTHFPGNLPNMLRDLRDAFSRVKTFFQMKDQLDNLLCKESLLEDFKGYLGCQALSEMIQFYLEEVMPQAENQDPDIKAHVNSLGENLKTLRLRLRRCHRFLPCENKSKAVEQVKNAFNKLQEKGIYKAMSEFDIFINYIEAYMTMKIRN",–,3 fold
"IL-10 Leu105Cys-R4-6 (ligand, human, UniProt P22301 19-178, looked up, R4-6 on Cys 105, mature) SPGQGTQSENSCTHFPGNLPNMLRDLRDAFSRVKTFFQMKDQLDNLLLKESLLEDFKGYLGCQALSEMIQFYLEEVMPQAENQDPDIKAHVNSLGENLKTLRLRCRRCHRFLPCENKSKAVEQVKNAFNKLQEKGIYKAMSEFDIFINYIEAYMTMKIRN",92.3%,–
"IL-10 Leu53Cys-S48 (ligand, human, UniProt P22301 19-178, looked up, S48 on Cys 53, mature) SPGQGTQSENSCTHFPGNLPNMLRDLRDAFSRVKTFFQMKDQLDNLLLKESLCEDFKGYLGCQALSEMIQFYLEEVMPQAENQDPDIKAHVNSLGENLKTLRLRLRRCHRFLPCENKSKAVEQVKNAFNKLQEKGIYKAMSEFDIFINYIEAYMTMKIRN",–,3 fold
"IL-10 Leu105Cys-S48 (ligand, human, UniProt P22301 19-178, looked up, S48 on Cys 105, mature) SPGQGTQSENSCTHFPGNLPNMLRDLRDAFSRVKTFFQMKDQLDNLLLKESLLEDFKGYLGCQALSEMIQFYLEEVMPQAENQDPDIKAHVNSLGENLKTLRLRCRRCHRFLPCENKSKAVEQVKNAFNKLQEKGIYKAMSEFDIFINYIEAYMTMKIRN",–,5 fold
"IL-10 Leu65Cys-R4-6 (ligand, human, UniProt P22301 19-178, looked up, R4-6 on Cys 65, mature) SPGQGTQSENSCTHFPGNLPNMLRDLRDAFSRVKTFFQMKDQLDNLLLKESLLEDFKGYLGCQACSEMIQFYLEEVMPQAENQDPDIKAHVNSLGENLKTLRLRLRRCHRFLPCENKSKAVEQVKNAFNKLQEKGIYKAMSEFDIFINYIEAYMTMKIRN",92.3%,–
"IL-10 Leu53Cys-R4-6 (ligand, human, UniProt P22301 19-178, looked up, R4-6 on Cys 53, mature) SPGQGTQSENSCTHFPGNLPNMLRDLRDAFSRVKTFFQMKDQLDNLLLKESLCEDFKGYLGCQALSEMIQFYLEEVMPQAENQDPDIKAHVNSLGENLKTLRLRLRRCHRFLPCENKSKAVEQVKNAFNKLQEKGIYKAMSEFDIFINYIEAYMTMKIRN",99.4%,–
"IL-10 Leu94Cys-S48 (ligand, human, UniProt P22301 19-178, looked up, S48 on Cys 94, mature) SPGQGTQSENSCTHFPGNLPNMLRDLRDAFSRVKTFFQMKDQLDNLLLKESLLEDFKGYLGCQALSEMIQFYLEEVMPQAENQDPDIKAHVNSCGENLKTLRLRLRRCHRFLPCENKSKAVEQVKNAFNKLQEKGIYKAMSEFDIFINYIEAYMTMKIRN",–,5 fold
"IL-10 Leu46Cys-S48 (ligand, human, UniProt P22301 19-178, looked up, S48 on Cys 46, mature) SPGQGTQSENSCTHFPGNLPNMLRDLRDAFSRVKTFFQMKDQLDNCLLKESLLEDFKGYLGCQALSEMIQFYLEEVMPQAENQDPDIKAHVNSLGENLKTLRLRLRRCHRFLPCENKSKAVEQVKNAFNKLQEKGIYKAMSEFDIFINYIEAYMTMKIRN",–,22 fold
"IL-10 Leu94Cys-R4-6 (ligand, human, UniProt P22301 19-178, looked up, R4-6 on Cys 94, mature) SPGQGTQSENSCTHFPGNLPNMLRDLRDAFSRVKTFFQMKDQLDNLLLKESLLEDFKGYLGCQALSEMIQFYLEEVMPQAENQDPDIKAHVNSCGENLKTLRLRLRRCHRFLPCENKSKAVEQVKNAFNKLQEKGIYKAMSEFDIFINYIEAYMTMKIRN",88.4%,–
"IL-10 Leu131Cys-R4-6 (ligand, human, UniProt P22301 19-178, looked up, R4-6 on Cys 131, mature) SPGQGTQSENSCTHFPGNLPNMLRDLRDAFSRVKTFFQMKDQLDNLLLKESLLEDFKGYLGCQALSEMIQFYLEEVMPQAENQDPDIKAHVNSLGENLKTLRLRLRRCHRFLPCENKSKAVEQVKNAFNKCQEKGIYKAMSEFDIFINYIEAYMTMKIRN",98.5%,–
"IL-10 Leu65Cys-S48 (ligand, human, UniProt P22301 19-178, looked up, S48 on Cys 65, mature) SPGQGTQSENSCTHFPGNLPNMLRDLRDAFSRVKTFFQMKDQLDNLLLKESLLEDFKGYLGCQACSEMIQFYLEEVMPQAENQDPDIKAHVNSLGENLKTLRLRLRRCHRFLPCENKSKAVEQVKNAFNKLQEKGIYKAMSEFDIFINYIEAYMTMKIRN",–,3 fold

# Results, then the binder that gave them:
Binding recovery (>60%),Decreased fold of binding to ligand after Conjugating with S48,Binder
97.6%,–,"IL-10 Lys138Cys-R4-7 (ligand, human, UniProt P22301 19-178, looked up, R4-7 on Cys 138, mature) SPGQGTQSENSCTHFPGNLPNMLRDLRDAFSRVKTFFQMKDQLDNLLLKESLLEDFKGYLGCQALSEMIQFYLEEVMPQAENQDPDIKAHVNSLGENLKTLRLRLRRCHRFLPCENKSKAVEQVKNAFNKLQEKGIYCAMSEFDIFINYIEAYMTMKIRN"
128%,–,"IL-10 Lys134Cys-R4-7 (ligand, human, UniProt P22301 19-178, looked up, R4-7 on Cys 134, mature) SPGQGTQSENSCTHFPGNLPNMLRDLRDAFSRVKTFFQMKDQLDNLLLKESLLEDFKGYLGCQALSEMIQFYLEEVMPQAENQDPDIKAHVNSLGENLKTLRLRLRRCHRFLPCENKSKAVEQVKNAFNKLQECGIYKAMSEFDIFINYIEAYMTMKIRN"
114%,–,"IL-10 Lys49Cys-R4-5 (ligand, human, UniProt P22301 19-178, looked up, R4-5 on Cys 49, mature) SPGQGTQSENSCTHFPGNLPNMLRDLRDAFSRVKTFFQMKDQLDNLLLCESLLEDFKGYLGCQALSEMIQFYLEEVMPQAENQDPDIKAHVNSLGENLKTLRLRLRRCHRFLPCENKSKAVEQVKNAFNKLQEKGIYKAMSEFDIFINYIEAYMTMKIRN"
98.6%,–,"IL-10 Lys157Cys-R4-7 (ligand, human, UniProt P22301 19-178, looked up, R4-7 on Cys 157, mature) SPGQGTQSENSCTHFPGNLPNMLRDLRDAFSRVKTFFQMKDQLDNLLLKESLLEDFKGYLGCQALSEMIQFYLEEVMPQAENQDPDIKAHVNSLGENLKTLRLRLRRCHRFLPCENKSKAVEQVKNAFNKLQEKGIYKAMSEFDIFINYIEAYMTMCIRN"
88%,–,"IL-10 Met39Cys-R4-1 (ligand, human, UniProt P22301 19-178, looked up, R4-1 on Cys 39, mature) SPGQGTQSENSCTHFPGNLPNMLRDLRDAFSRVKTFFQCKDQLDNLLLKESLLEDFKGYLGCQALSEMIQFYLEEVMPQAENQDPDIKAHVNSLGENLKTLRLRLRRCHRFLPCENKSKAVEQVKNAFNKLQEKGIYKAMSEFDIFINYIEAYMTMKIRN"
–,23 fold,"IL-10 Lys138Cys-S48 (ligand, human, UniProt P22301 19-178, looked up, S48 on Cys 138, mature) SPGQGTQSENSCTHFPGNLPNMLRDLRDAFSRVKTFFQMKDQLDNLLLKESLLEDFKGYLGCQALSEMIQFYLEEVMPQAENQDPDIKAHVNSLGENLKTLRLRLRRCHRFLPCENKSKAVEQVKNAFNKLQEKGIYCAMSEFDIFINYIEAYMTMKIRN"
–,3 fold,"IL-10 Lys117Cys-S48 (ligand, human, UniProt P22301 19-178, looked up, S48 on Cys 117, mature) SPGQGTQSENSCTHFPGNLPNMLRDLRDAFSRVKTFFQMKDQLDNLLLKESLLEDFKGYLGCQALSEMIQFYLEEVMPQAENQDPDIKAHVNSLGENLKTLRLRLRRCHRFLPCENCSKAVEQVKNAFNKLQEKGIYKAMSEFDIFINYIEAYMTMKIRN"
–,7 fold,"IL-10 Lys49Cys-S48 (ligand, human, UniProt P22301 19-178, looked up, S48 on Cys 49, mature) SPGQGTQSENSCTHFPGNLPNMLRDLRDAFSRVKTFFQMKDQLDNLLLCESLLEDFKGYLGCQALSEMIQFYLEEVMPQAENQDPDIKAHVNSLGENLKTLRLRLRRCHRFLPCENKSKAVEQVKNAFNKLQEKGIYKAMSEFDIFINYIEAYMTMKIRN"
–,62 fold,"IL-10 Met39Cys-S48 (ligand, human, UniProt P22301 19-178, looked up, S48 on Cys 39, mature) SPGQGTQSENSCTHFPGNLPNMLRDLRDAFSRVKTFFQCKDQLDNLLLKESLLEDFKGYLGCQALSEMIQFYLEEVMPQAENQDPDIKAHVNSLGENLKTLRLRLRRCHRFLPCENKSKAVEQVKNAFNKLQEKGIYKAMSEFDIFINYIEAYMTMKIRN"
–,5 fold,"IL-10 Lys134Cys-S48 (ligand, human, UniProt P22301 19-178, looked up, S48 on Cys 134, mature) SPGQGTQSENSCTHFPGNLPNMLRDLRDAFSRVKTFFQMKDQLDNLLLKESLLEDFKGYLGCQALSEMIQFYLEEVMPQAENQDPDIKAHVNSLGENLKTLRLRLRRCHRFLPCENKSKAVEQVKNAFNKLQECGIYKAMSEFDIFINYIEAYMTMKIRN"
117%,–,"IL-10 Lys117Cys-R4-7 (ligand, human, UniProt P22301 19-178, looked up, R4-7 on Cys 117, mature) SPGQGTQSENSCTHFPGNLPNMLRDLRDAFSRVKTFFQMKDQLDNLLLKESLLEDFKGYLGCQALSEMIQFYLEEVMPQAENQDPDIKAHVNSLGENLKTLRLRLRRCHRFLPCENCSKAVEQVKNAFNKLQEKGIYKAMSEFDIFINYIEAYMTMKIRN"
–,5 fold,"IL-10 Leu131Cys-S48 (ligand, human, UniProt P22301 19-178, looked up, S48 on Cys 131, mature) SPGQGTQSENSCTHFPGNLPNMLRDLRDAFSRVKTFFQMKDQLDNLLLKESLLEDFKGYLGCQALSEMIQFYLEEVMPQAENQDPDIKAHVNSLGENLKTLRLRLRRCHRFLPCENKSKAVEQVKNAFNKCQEKGIYKAMSEFDIFINYIEAYMTMKIRN"
–,3 fold,"IL-10 Lys157Cys-S48 (ligand, human, UniProt P22301 19-178, looked up, S48 on Cys 157, mature) SPGQGTQSENSCTHFPGNLPNMLRDLRDAFSRVKTFFQMKDQLDNLLLKESLLEDFKGYLGCQALSEMIQFYLEEVMPQAENQDPDIKAHVNSLGENLKTLRLRLRRCHRFLPCENKSKAVEQVKNAFNKLQEKGIYKAMSEFDIFINYIEAYMTMCIRN"
